In the supplement of paper PMC10065799, “High-throughput profiling of sequence recognition by tyrosine kinases and SH2 domains using bacterial peptide display” (eLife, 2023):

Biological target: Fes (UniProt P07332)
Assay: phosphorylation enrichment, bacterial display (enrichment ratio); higher = better substrate or ligand; peptides without Tyr show the background
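Note: 11-residue human phosphosite peptides and single-mutation variants displayed on the E. coli surface, counted by deep sequencing, each peptide's frequency after selection divided by its frequency in the unselected input library; frequency after pTyr selection over input frequency; kinase dosed for 20-30% of maximal phosphorylation in three min.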

Chain of Fes (P07332 whole entry, looked up): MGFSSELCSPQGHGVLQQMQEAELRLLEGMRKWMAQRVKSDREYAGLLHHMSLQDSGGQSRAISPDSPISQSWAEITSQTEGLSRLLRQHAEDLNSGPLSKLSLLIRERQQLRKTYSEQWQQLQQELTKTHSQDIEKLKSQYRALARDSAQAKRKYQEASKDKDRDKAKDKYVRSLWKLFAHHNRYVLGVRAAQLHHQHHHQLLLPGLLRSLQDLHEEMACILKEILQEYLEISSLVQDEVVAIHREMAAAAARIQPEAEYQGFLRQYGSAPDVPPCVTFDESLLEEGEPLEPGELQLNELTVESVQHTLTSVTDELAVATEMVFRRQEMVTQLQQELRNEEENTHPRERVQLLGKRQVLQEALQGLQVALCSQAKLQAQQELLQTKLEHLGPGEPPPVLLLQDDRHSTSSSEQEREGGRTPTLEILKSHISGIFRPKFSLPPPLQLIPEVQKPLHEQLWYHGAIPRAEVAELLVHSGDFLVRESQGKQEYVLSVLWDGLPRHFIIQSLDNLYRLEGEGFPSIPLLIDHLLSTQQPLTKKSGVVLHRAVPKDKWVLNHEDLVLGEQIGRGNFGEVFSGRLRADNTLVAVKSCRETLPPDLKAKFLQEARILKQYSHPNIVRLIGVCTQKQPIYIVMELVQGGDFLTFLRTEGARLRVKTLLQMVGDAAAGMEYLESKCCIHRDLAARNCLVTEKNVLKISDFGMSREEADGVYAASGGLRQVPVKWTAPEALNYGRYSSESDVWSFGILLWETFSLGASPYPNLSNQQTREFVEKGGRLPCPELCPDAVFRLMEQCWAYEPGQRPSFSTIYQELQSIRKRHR

Going from LQTYRYHGLSM [PDHA1_Y289_H292L] to ADCRYYAFPQM [GAMT_Y223], the phosphorylation enrichment rises from 1.13 to 1.33.

Going from SQSAKYDMAED [TTC21B_Y1213_I1208S] to MFNPFYGLFEF [NEDD4L_Y680_YF], the phosphorylation enrichment rises from 0.894 to 1.04.

First: STDDGYIDLQF [TMEM230_Y29]
Second: LTFPDYLPCSV [SAG_Y129]
The phosphorylation enrichment of the first is lower: 1.09 for the first, 1.44 for the second.

First: PSPTRYSLSPS [RANBP2_Y785]
Second: IFGVSYGEYRY [CFTR_Y512_D513G]
The phosphorylation enrichment of the first is lower: 0.886 for the first, 1.33 for the second.

Going from RAVLLYEFVGK [NATD1_Y45_YF] to VECHPYFTQPK [AKR1D1_Y199], the phosphorylation enrichment falls from 3.12 to 1.01.

Compared with LVSCTYQLATG [FGFR2_Y608_R612T], MARDIYRASYY [ALK_Y1278] is lower in phosphorylation enrichment: 1.3 for the first, 0.683 for the second.

Compared with SFDLDYDSVQP [MYC_Y16_N11S_YF], SASSSYSRSRS [SRRM4_Y549_R547S] is lower in phosphorylation enrichment: 1.31 for the first, 0.482 for the second.

Going from TTGGFYSYGGG [KRT24_Y120_A115T] to GADDSYYTVRS [ZAP70_Y492_A495V], the phosphorylation enrichment falls from 1.04 to 0.882.

Biological target: Jak2 (UniProt O60674)
Assay: as above

Chain of Jak2 (O60674 whole entry, looked up): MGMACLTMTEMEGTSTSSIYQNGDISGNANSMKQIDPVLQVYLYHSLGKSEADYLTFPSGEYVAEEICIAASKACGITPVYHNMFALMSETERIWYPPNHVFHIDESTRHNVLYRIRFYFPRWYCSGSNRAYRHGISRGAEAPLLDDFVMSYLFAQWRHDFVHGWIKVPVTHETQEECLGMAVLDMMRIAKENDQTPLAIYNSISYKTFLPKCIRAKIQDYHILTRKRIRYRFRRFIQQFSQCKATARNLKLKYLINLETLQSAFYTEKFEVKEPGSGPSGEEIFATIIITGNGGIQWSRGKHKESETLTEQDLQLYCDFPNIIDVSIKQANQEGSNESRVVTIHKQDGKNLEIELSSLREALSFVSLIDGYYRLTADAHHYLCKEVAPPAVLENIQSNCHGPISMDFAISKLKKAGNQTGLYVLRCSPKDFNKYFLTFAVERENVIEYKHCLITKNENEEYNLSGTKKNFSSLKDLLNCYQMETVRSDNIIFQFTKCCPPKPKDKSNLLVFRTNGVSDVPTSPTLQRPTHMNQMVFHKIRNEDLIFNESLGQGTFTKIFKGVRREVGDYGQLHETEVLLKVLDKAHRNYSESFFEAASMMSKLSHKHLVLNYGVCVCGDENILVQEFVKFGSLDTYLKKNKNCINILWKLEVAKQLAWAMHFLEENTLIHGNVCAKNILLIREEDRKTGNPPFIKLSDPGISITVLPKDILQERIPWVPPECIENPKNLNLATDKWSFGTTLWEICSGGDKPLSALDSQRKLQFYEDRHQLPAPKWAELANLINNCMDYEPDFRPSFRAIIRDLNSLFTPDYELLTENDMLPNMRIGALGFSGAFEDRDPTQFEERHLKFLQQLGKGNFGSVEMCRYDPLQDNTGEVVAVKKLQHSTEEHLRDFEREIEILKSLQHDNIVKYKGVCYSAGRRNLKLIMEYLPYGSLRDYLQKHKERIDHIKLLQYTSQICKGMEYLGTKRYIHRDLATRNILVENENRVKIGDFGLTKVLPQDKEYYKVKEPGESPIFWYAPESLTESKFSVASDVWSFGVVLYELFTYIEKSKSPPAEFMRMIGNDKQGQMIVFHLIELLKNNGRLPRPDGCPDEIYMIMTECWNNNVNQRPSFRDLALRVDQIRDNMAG

Going from LQTYRYHGLSM [PDHA1_Y289_H292L] to ADCRYYAFPQM [GAMT_Y223], the phosphorylation enrichment rises from 0.576 to 5.86.

First: SQSAKYDMAED [TTC21B_Y1213_I1208S]
Second: MFNPFYGLFEF [NEDD4L_Y680_YF]
The phosphorylation enrichment of the first is higher: 0.858 for the first, 0.852 for the second.

Going from STDDGYIDLQF [TMEM230_Y29] to LTFPDYLPCSV [SAG_Y129], the phosphorylation enrichment rises from 1.19 to 2.91.

Going from PSPTRYSLSPS [RANBP2_Y785] to IFGVSYGEYRY [CFTR_Y512_D513G], the phosphorylation enrichment rises from 0.439 to 0.858.

Compared with RAVLLYEFVGK [NATD1_Y45_YF], VECHPYFTQPK [AKR1D1_Y199] is lower in phosphorylation enrichment: 1.56 for the first, 0.819 for the second.

Going from LVSCTYQLATG [FGFR2_Y608_R612T] to MARDIYRASYY [ALK_Y1278], the phosphorylation enrichment falls from 1.05 to 0.702.

First: SFDLDYDSVQP [MYC_Y16_N11S_YF]
Second: SASSSYSRSRS [SRRM4_Y549_R547S]
The phosphorylation enrichment of the first is higher: 1.3 for the first, 0.451 for the second.

Going from TTGGFYSYGGG [KRT24_Y120_A115T] to GADDSYYTVRS [ZAP70_Y492_A495V], the phosphorylation enrichment rises from 0.763 to 1.16.

Biological target: Fyn (UniProt P06241)
Assay: as above

Chain of Fyn (P06241 whole entry, looked up): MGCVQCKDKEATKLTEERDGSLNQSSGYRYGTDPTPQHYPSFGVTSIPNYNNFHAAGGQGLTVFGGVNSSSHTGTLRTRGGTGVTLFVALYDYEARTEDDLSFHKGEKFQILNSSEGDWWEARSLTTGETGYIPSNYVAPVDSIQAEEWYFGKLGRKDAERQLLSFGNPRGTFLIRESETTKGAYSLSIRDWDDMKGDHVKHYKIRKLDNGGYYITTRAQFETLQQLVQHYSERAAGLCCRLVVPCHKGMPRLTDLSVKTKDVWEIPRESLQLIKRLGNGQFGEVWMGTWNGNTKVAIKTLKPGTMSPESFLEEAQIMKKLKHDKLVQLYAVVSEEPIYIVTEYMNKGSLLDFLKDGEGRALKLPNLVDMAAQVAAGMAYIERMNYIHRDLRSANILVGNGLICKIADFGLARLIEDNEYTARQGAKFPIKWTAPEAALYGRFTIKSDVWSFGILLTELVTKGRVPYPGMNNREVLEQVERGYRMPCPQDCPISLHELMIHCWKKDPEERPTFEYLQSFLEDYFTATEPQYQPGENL

Compared with LQTYRYHGLSM [PDHA1_Y289_H292L], ADCRYYAFPQM [GAMT_Y223] is higher in phosphorylation enrichment: 0.703 for the first, 2.75 for the second.

Compared with SQSAKYDMAED [TTC21B_Y1213_I1208S], MFNPFYGLFEF [NEDD4L_Y680_YF] is higher in phosphorylation enrichment: 0.556 for the first, 4.38 for the second.

First: STDDGYIDLQF [TMEM230_Y29]
Second: LTFPDYLPCSV [SAG_Y129]
The phosphorylation enrichment of the first is higher: 0.564 for the first, 0.427 for the second.

Compared with PSPTRYSLSPS [RANBP2_Y785], IFGVSYGEYRY [CFTR_Y512_D513G] is higher in phosphorylation enrichment: 0.537 for the first, 7.22 for the second.

Going from RAVLLYEFVGK [NATD1_Y45_YF] to VECHPYFTQPK [AKR1D1_Y199], the phosphorylation enrichment falls from 5.5 to 0.559.

Going from LVSCTYQLATG [FGFR2_Y608_R612T] to MARDIYRASYY [ALK_Y1278], the phosphorylation enrichment rises from 0.596 to 0.688.

Compared with SFDLDYDSVQP [MYC_Y16_N11S_YF], SASSSYSRSRS [SRRM4_Y549_R547S] is lower in phosphorylation enrichment: 0.833 for the first, 0.462 for the second.

First: TTGGFYSYGGG [KRT24_Y120_A115T]
Second: GADDSYYTVRS [ZAP70_Y492_A495V]
The phosphorylation enrichment of the first is higher: 2.56 for the first, 1.44 for the second.

Biological target: FGFR3 (UniProt P22607)
Assay: as above

Chain of FGFR3 (P22607 whole entry, looked up): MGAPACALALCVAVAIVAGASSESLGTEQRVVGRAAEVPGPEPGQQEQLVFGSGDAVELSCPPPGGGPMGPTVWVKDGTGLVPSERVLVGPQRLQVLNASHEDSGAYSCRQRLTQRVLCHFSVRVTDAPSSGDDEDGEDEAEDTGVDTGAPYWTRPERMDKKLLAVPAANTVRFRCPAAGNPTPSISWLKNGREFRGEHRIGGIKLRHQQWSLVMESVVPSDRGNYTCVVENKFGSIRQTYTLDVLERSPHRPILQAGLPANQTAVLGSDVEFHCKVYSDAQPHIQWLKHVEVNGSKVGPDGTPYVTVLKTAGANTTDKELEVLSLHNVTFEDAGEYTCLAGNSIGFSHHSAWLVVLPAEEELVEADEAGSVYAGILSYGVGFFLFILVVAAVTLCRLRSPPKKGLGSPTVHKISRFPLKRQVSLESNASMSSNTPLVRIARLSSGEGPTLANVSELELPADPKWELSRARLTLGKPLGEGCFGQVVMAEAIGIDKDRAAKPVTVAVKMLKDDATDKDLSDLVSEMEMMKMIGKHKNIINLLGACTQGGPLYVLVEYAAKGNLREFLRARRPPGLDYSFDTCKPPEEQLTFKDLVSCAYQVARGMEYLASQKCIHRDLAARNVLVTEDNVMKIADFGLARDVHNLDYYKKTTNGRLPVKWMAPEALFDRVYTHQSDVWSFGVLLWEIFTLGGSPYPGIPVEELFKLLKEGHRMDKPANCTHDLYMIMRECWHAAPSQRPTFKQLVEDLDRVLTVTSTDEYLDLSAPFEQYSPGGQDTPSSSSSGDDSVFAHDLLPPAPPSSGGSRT

First: LQTYRYHGLSM [PDHA1_Y289_H292L]
Second: ADCRYYAFPQM [GAMT_Y223]
The phosphorylation enrichment of the first is lower: 0.915 for the first, 8.74 for the second.

Going from SQSAKYDMAED [TTC21B_Y1213_I1208S] to MFNPFYGLFEF [NEDD4L_Y680_YF], the phosphorylation enrichment rises from 0.56 to 0.794.

First: STDDGYIDLQF [TMEM230_Y29]
Second: LTFPDYLPCSV [SAG_Y129]
The phosphorylation enrichment of the first is lower: 1.01 for the first, 3.07 for the second.

First: PSPTRYSLSPS [RANBP2_Y785]
Second: IFGVSYGEYRY [CFTR_Y512_D513G]
The phosphorylation enrichment of the first is lower: 0.577 for the first, 0.819 for the second.

Compared with RAVLLYEFVGK [NATD1_Y45_YF], VECHPYFTQPK [AKR1D1_Y199] is lower in phosphorylation enrichment: 2.29 for the first, 0.709 for the second.

Going from LVSCTYQLATG [FGFR2_Y608_R612T] to MARDIYRASYY [ALK_Y1278], the phosphorylation enrichment falls from 0.764 to 0.63.

Compared with SFDLDYDSVQP [MYC_Y16_N11S_YF], SASSSYSRSRS [SRRM4_Y549_R547S] is lower in phosphorylation enrichment: 0.749 for the first, 0.46 for the second.

Compared with TTGGFYSYGGG [KRT24_Y120_A115T], GADDSYYTVRS [ZAP70_Y492_A495V] is higher in phosphorylation enrichment: 0.664 for the first, 3.76 for the second.
